Where a SMILES comes first, the peptide text is derived from it.
Experiments:
A549 tumor = assay: In vivo fluorescence optical imaging and ex vivo organ distribution in A549 tumor-bearing nude mice; conditions: for uptake / retention in A549 tumor: 0.3 μmol per kg via lateral tail vein, fluorescence imaging
Method: All in vivo studies were performed in compliance with the Washington University in St Louis Animal Study Committee's requirements for the care and use of laboratory animals in research. Nude mice (18-22 g) were anesthetized with xylazine/ketamine cocktail via intraperitoneal injection and placed in a supine position. The mice were injected subcutaneously with A549 cells (1×10^6) in the lower back of the mice. Tumor masses were palpable at 5-7 days post implant, which reached 5 mm in 10-15 days. Prior to injection of the probe, the mice were anesthetized as described above. A 29-gauge needle was used to inject the probes into the mouse via the lateral tail vein. The molecular probe (100 μL) was injected via the lateral tail vein at 0.3 μmol per kg of body weight. […] [SEQ ID NO:1] were constituted in a vial, and doses of 0.3 μmol per kg of body weight were injected into the A549 tumor-bearing mice.
A non-invasive in vivo continuous wave fluorescence imaging apparatus was used to visualize the distribution and preferential tissue uptake of the cypate-peptide molecular beacons in the nude mice (Achilefu (2004) Technol. Cancer Res. Treat. 3:393-409, incorporated herein by reference). Light from two laser diodes of nominal wavelength 780 nm and nominal power of 50 mW was launched into a fiber optic bundle. Two laser diodes were used to produce as much uniform illumination of the whole animal or organ parts as possible. The nominal 50 mW of incident power was reduced to about 44 mW at the output of the fiber optic bundle. A de-focusing lens in position after the bundle expanded the beam such that nearly the whole animal was illuminated. A Photometrics CCD camera (16 bit, 1024×1024 pixel, back illuminated, thermoelectric Peltier cooled with forced air) was used to capture the emitted photons. An interference filter (830 nm) was mounted in front of the CCD camera input lens such that only emitted fluorescent light from the contrast agent was imaged. Real-time acquisition, display and data processing software (WinView/32) was used to obtain the optical image. The samples were dissolved in 20% aqueous DMSO and animals were injected with doses of 0.3 μmol/kg body weight via the lateral tail vein. Injected volumes were 100 μL for each mouse. Data analysis consisted of subtracting (pixel by pixel) the pre-injection image from the post injection images, and displaying the false color results. Integration of the relative fluorescence intensities of tumor vs. surrounding tissues indicated the extent of selective uptake of the contrast agent. At the completion of the study, the mice were euthanized and some organ parts were excised and rinsed with water. The tissues were placed under the CCD camera and the fluorescence emission from each organ was measured after excitation with the 780 nm laser sources. Tissue parts, instead of whole organs, were used to minimize problems associated with depth-dependent non-linear fluorescence emission. A statistical program in the WinView package was used to estimate the mean fluorescence intensity per organ part.
In vivo optical imaging studies using the cypate-peptide optical probes were performed and analyzed as described above in Example 1. […]

[1] = biological target: integrin αvβ3 protein (purified ABI) (Homo sapiens, UniProt P05106+P06756); assay: Receptor binding assay with 125I-echistatin (Example 3); conditions: Table 4, 125I-echistatin tracer
Method: A 96-well filtration plate was blocked with 0.1% polyethylenimine blocking solution by incubation overnight at 4° C. ^125I-Echistatin (50 nmol/L) was added to the binding buffer (50 mM Tris-HCl, pH 7.4, 100 mM NaCl, 2 mM CaCl2, 1 mM MgCl2, 1 mM MnCl2, 0.1% BSA) with integrin αvβ3 protein (50 ng/well in 96-well filtration plate) and ligands. The concentration range of ligand was between 0.01 and 100 μM. The mixture was incubated for 2 h by shaking at room temperature. Each well was washed three times with 0.25 mL of ice-cold binding buffer and dried. The filters were removed using a punch apparatus and counted in a gamma counter.

[2] = test system: A549 cell membranes (ABI); assay: ABI binding assay using A549 cell membranes; design: species or system human; conditions: compared with purified ABI
Source text: [SEQ ID NO:1] as the target receptor, tracer, and reference standard, respectively. Echistatin is a polypeptide that binds purified ABI specifically and irreversibly and the radiolabeled analogue is used widely in ABI binding assays. […] Because of the rearrangement of the RGD peptide sequence, the low binding of cypate-GRD peptide to ABI was expected.

[3] = Absorption and emission spectral properties in 20% aqueous DMSO; type: physicochemical
Method: The spectral properties of cypate and the cypate-peptide conjugates were determined in 20% aqueous DMSO, which solubilizes all the compounds. […] Absorbance measurements were performed with a Beckman Coulter DU 640 spectrophotometer. The fluorescence spectra were recorded on Fluorolog-3 fluorometer (HORIBA Jobin Yvon Inc., Edison, N.J.). To prepare the stock solutions, a high precision analytical balance was used to weigh >2 mg of each compound, which was dissolved in DMSO. The DMSO solutions were then diluted with water to obtain a final solution of 20% aqueous DMSO. An aliquot (known volume) of the solution was transferred to a cuvette with 1 μL precision micropipettes and diluted with 20% aqueous DMSO solvent mixture to give a working solution that absorbs at <1.0 absorbance unit. Aliquots of the working solution were diluted with 20% aqueous DMSO and used to determine the molar absorptivity of each compound. For fluorescence measurements, probe solutions with 0.1 absorbance units were used to minimize inner filter effects.
Previous studies have shown that this solvent mixture boosts fluorescence intensity and is well tolerated by rodents. Additionally, the dyes and their peptide conjugates are soluble in this solvent mixture, providing a common medium for spectral measurements.
Absorbance spectra were measured on a Beckman Coulter DU 640 UV-Visible spectrophotometer. Fluorescence spectra were recorded on a HORIBA Jobin Yvon Fluorolog-3 fluorometer. Stock solutions (1.0 mM) of the conjugates were prepared by dissolving each sample in 80% aqueous DMSO. UV-Vis and fluorescence measurements were carried out by adding 5.0 μL of the stock solutions via a micropipette into 3 mL of 20% aqueous DMSO in a quartz cuvette.

Sequence of integrin αvβ3 protein (purified ABI) (P06756 31-889 limits assumed): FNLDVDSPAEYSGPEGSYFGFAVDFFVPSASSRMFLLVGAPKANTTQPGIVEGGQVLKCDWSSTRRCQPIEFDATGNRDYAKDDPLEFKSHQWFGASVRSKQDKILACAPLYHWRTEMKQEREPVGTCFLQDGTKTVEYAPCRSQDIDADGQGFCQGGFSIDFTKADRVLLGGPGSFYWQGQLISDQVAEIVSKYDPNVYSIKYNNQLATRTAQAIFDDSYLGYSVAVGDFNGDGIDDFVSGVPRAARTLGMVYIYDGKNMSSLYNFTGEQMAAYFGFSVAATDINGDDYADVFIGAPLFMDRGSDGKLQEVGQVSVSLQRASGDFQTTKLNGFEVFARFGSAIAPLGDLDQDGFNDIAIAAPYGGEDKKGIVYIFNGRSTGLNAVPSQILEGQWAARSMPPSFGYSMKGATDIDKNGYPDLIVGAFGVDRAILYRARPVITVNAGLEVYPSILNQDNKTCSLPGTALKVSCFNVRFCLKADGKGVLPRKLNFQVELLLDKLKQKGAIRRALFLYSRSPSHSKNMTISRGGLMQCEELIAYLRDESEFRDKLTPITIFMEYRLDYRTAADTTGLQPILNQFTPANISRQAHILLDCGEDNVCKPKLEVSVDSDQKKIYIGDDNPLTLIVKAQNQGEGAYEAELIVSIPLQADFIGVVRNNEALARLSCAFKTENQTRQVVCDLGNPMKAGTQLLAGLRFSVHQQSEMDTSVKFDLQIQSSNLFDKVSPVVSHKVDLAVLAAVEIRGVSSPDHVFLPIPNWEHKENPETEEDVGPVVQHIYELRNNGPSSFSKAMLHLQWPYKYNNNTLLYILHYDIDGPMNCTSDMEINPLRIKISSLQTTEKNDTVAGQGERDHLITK
Sequence of integrin αvβ3 protein (purified ABI) (P06756 891-1048 partner limits assumed): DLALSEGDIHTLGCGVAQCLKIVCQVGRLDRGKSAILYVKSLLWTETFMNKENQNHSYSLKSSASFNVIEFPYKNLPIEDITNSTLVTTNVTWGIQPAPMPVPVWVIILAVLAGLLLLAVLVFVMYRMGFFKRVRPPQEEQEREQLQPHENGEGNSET
Sequence of integrin αvβ3 protein (purified ABI) (P05106 27-788): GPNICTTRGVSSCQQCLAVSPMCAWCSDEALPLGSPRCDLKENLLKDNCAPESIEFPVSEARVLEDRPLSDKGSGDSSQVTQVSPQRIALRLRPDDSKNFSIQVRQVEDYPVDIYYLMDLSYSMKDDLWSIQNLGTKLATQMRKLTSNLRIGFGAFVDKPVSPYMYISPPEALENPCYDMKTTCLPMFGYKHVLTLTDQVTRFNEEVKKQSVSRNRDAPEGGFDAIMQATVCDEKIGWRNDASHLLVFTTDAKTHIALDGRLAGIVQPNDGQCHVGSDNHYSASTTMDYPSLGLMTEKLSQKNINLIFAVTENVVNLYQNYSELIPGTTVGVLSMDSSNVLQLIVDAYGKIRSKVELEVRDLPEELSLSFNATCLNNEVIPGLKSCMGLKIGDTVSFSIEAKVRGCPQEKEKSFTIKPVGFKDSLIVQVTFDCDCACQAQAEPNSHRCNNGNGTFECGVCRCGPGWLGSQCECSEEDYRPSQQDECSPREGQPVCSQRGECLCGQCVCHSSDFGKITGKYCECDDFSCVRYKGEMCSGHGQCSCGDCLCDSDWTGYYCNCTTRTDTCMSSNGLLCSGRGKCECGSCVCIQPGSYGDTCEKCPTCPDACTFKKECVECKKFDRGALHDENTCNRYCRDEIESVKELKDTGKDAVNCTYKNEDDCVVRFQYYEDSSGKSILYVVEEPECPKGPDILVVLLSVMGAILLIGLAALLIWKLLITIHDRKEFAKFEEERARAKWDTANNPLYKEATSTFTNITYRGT

For `CC1(C)C(/C=C/C=C/C=C/C=C2/N(CCC(=O)NCC(=O)N[C@@H](CCCNC(=N)N)C(=O)N[C@@H](CC(=O)O)C(=O)N[C@@H](CO)C(=O)N3CCC[C@H]3C(=O)N[C@@H](CCCCN)C(=O)O)c3ccc4ccccc4c3C2(C)C)=[N+](CCC(=O)O)c2ccc3ccccc3c21` [Cyp-GRD, Cypate-GRDSPK] (HELM PEPTIDE1{[CC1(C)C(/C=C/C=C/C=C/C=C2/N(CCC(=O)[*:2])c3ccc4ccccc4c3C2(C)C)=[N+](CCC(=O)O)c2ccc3ccccc3c21].G.R.D.S.P.K}$$$$V2.0), the clearance from blood (A549 tumor; 0.3 μmol per kg i.v.) was “slow clearance”, the “time post injection after which selective tumor uptake became obvious” value (A549 tumor; 0.3 μmol per kg i.v.) was > 8 h and the “time the whole animal fluoresced after injection before clearance began” value (A549 tumor; 0.3 μmol per kg i.v.) was “up to 2 h”. The “uptake / retention in A549 tumor” value (A549 tumor) was “preferential uptake of the probes in the tumor”, the “uptake / retention in A549 tumor” value (A549 tumor; listed as cypate-GRD) was “preferentially localized” and the “accumulation / retention in nontarget tissues” value (A549 tumor; 24 h post injection) was “much lower”. For the same compound, the “tumor uptake compared among the cypate-peptide conjugates” value (A549 tumor; 24 h post injection) was “higher uptake in the tumor tissue”, the IC50 [1] was > 100 µM and the “ABI binding affinity using A549 cell membranes” value [2] was “No improvement in the ABI binding affinity”. For the same compound, the “^abεmax” value [3] was 237,680 cm^−1Mol^−1, the “^abλmax” value [3] was 789 nm and the “^emλmax” value [3] was 813 nm.
